Test results as given in patent publication US12404493B2, “Methods for the re-derivation of diverse pluripotent stem cell-derived brown fat cells” (AgeX Therapeutics, Inc., priority 2015, dated 2025).

Tested on: hES cell-derived clonal embryonic progenitor cell lines
Test: Differentiation of clonal embryonic progenitor cell lines into BAT cells in HyStem beads, marker expression by Illumina microarray / qPCR
Format: cell-based, human
Conditions: 10 ng/mL BMP4 or 100 ng/mL BMP7 added to rosiglitazone/T3/CL-316,243 differentiation in HyStem beads
Protocol: Then, HyStem (1 ml, 1% w/v) is mixed with Gelin-S (1 ml, 1% w/v) immediately before use. […] Following complete gelation (20 min), Differentiation Medium is added to each well. […] Plates were then placed in a humidified incubator at 37° C. with ambient O2 and 10% CO2, and the cells were fed three-times weekly.
Total RNA was extracted directly from cells growing in 6-well plates or 10 cm tissue culture dishes using Qiagen RNeasy mini kits according to the manufacturer's instructions. RNA concentrations were measured using a Beckman DU530 or Nanodrop spectrophotometer and RNA quality was determined by denaturing agarose gel electrophoresis or using an Agilent 2100 bioanalyzer. […] Values of less than 120 relative fluorescence units (RFUs) were considered as nonspecific background signal.

Molecule	cell viability
BMP4: Bone Morphogenetic Protein 4, member of the TGFβ superfamily (protein, UniProt P12644 293-408, looked up) Bone morphogenetic protein 4: SPKHHSQRARKKNKNCRRHSLYVDFSDVGWNDWIVAPPGYQAFYCHGDCPFPLADHLNSTNHAIVQTLVNSVNSSIPKACCVPTELSAISMLYLDEYDKVVLKNYQEMVVEGCGCR	greater levels of cell viability
BMP7: Bone Morphogenetic Protein 7, member of the TGFβ superfamily (protein, UniProt P18075 293-431, looked up) Bone morphogenetic protein 7: STGSKQRSQNRSKTPKNQEALRMANVAENSSSDQRQACKKHELYVSFRDLGWQDWIIAPEGYAAYYCEGECAFPLNSYMNATNHAIVQTLVHFINPETVPKPCCAPTQLNAISVLYFDDSSNVILKKYRNMVVRACGCH	greater levels of cell viability
